For assay [1], the target named is T1, human IL1RAP (human, UniProt Q9NPH3 21-367, limits assumed, biotinylated in the ELISA screens (site not stated)).
T1 construct: also called huIL1RAP; IL1RAP antigen
T1 sequence (looked up): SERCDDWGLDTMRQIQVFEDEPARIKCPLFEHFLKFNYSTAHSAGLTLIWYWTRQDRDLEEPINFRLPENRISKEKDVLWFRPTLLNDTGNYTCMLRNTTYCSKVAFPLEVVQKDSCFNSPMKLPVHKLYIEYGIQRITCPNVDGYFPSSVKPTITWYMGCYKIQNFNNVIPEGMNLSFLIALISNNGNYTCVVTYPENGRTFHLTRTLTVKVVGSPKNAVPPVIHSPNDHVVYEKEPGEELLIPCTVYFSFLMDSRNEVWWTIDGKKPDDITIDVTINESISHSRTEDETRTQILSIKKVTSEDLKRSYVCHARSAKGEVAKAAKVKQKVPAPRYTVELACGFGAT
In words: hKD, method not stated.

In assay [2] the target is T1, human IL1RAP. In words: ELISA: Fab constant (4 nM) captured on Fd coat (67 nM), Biot-hu IL1RAP titrated from 6.8 nM (the concentration axis is the antigen), SA-HRP 1:4000.
Assay [3] concerns the target T1, human IL1RAP. Described as above. This is another data set of the same source.
In assay [4] the target is T1, human IL1RAP. Put plainly: ELISA of point mutant IgG (light chain mutant with the parental chimeric heavy chain, CHO-E expression), one bar each, concentration not given. An excerpt: For light chain 13 variants (T25A, E27Q, N28S, N30S, Y50A, K52S, T53Y, A55Q, E56S, H90Q, H91S, G93S and S95P) and 19 heavy chain variants (Y27G, I28T, L30S, T31S, W33Y, M34I, N35S, Q50R, F521, A541, S55L, D56G, S57I, T58A, N61A, E62Q, M63K, K65Q and D66G) were generated separately in the vector pTT5 (See FIG. 3A/B). The light chain mutants were paired with the parental chimeric heavy chain and heavy chain mutants were paired with parental chimeric light chain for expression analysis in CHO-E cells for 7 days. The resulting variants were evaluated for binding in ELISA experiments and compared to the parental chimeric IgG which has mouse variable region but human constant regions. For light chain variants, six point mutants VK-T25A, E27Q, N28S, N30S, K52S and T53Y depicted binding similar to chimeric IgG (+10% control; FIG. 3A) while for heavy chain […] point mutants VH-I28T, L30S, M34I, N35S, D56G, T58A, N61A, E62Q, M63K, K65Q and D66G depicted similar binding as chimeric IgG (+10% control; FIG. 3B).

The target in assay [5] is T1, human IL1RAP. Put plainly: ELISA, antigen titration: Fab (1:5) captured on anti-Fd coat 700 ng/ml (4.7 nM), IL1RAP antigen titrated (the concentration axis is the antigen), SA-HRP 1:4000.

Where two headings read alike, the source gives them in different places.

B1: CAN04 (antibody, V domains shown)
VH: QVQLQQSGPELLKPGASVKISCKASGYAFSSSWMNWVKQRPGKGLEWIGRIYPGDGNTHYSGKFKGKATLTADKSSSIAYMQLSSLTSEDSAVYFCGEGYLDPMDYWGQGTSVTVSS
VL: DIQMTQTTSSLSASLGDRVTISCSASQGINNYLNWYQQKPDGTVKLLIHYTSGLHAGVPSRFSGSGSGTDYSLTISNLEPEDVATYYCQQYSILPWTFGGGTKLEIKR
A word on the Kd: it is the concentration at which binding is half-saturated. In assay [1], B1 gave a Kd of 200 pM.

B2: IL1RAP G011 chimeric Fab (Fab, V domains shown)
VH: QVHLQQSGPELVRPGTSVKISCEASGYIFLTYWMNWVKQRPGQGLEWIGQIFPASDSTYYNEMFKDKARFTVDKSSSTAYMQFSSLTSEDTAVYFCARSGPYSYYAGGYALDYWGQGTSVTVSS
VL: DIQMTQSPASLSASVGETVTITCRTSENINSYLAWYQQKQGKSPQLLVHYAKTLAEGVPSRFSGSGSGTQFSLKINSLKPEDFGSYYCQHHYGTSLTFGAGTKLELK
notes: Mouse VK and VH fused to human Ck and CH1; expressed in E. coli (periplasmic extract or supernatant); also called mouse Fab; chimeric parent anti-IL1RAP GO11 Fab
By EC50 (read off the curve) is commonly meant the concentration at which the effect is half-maximal. Low values mean higher potency in that assay, high ones lower potency in that assay. As for B2, the half-maximal effective concentration (EC50 (read off the curve)) in assay [2] and in assay [3] was ~400 pM in each case.

B3: VK-E56S (antibody, V domains shown)
VH: QVHLQQSGPELVRPGTSVKISCEASGYIFLTYWMNWVKQRPGQGLEWIGQIFPASDSTYYNEMFKDKARFTVDKSSSTAYMQFSSLTSEDTAVYFCARSGPYSYYAGGYALDYWGQGTSVTVSS
VL: DIQMTQSPASLSASVGETVTITCRTSENINSYLAWYQQKQGKSPQLLVHYAKTLASGVPSRFSGSGSGTQFSLKINSLKPEDFGSYYCQHHYGTSLTFGAGTKLELKR
notes: germlining point mutant, paired with the parental chimeric heavy chain; also called GO11 chimeric IgG, light chain point mutant E56S; copies: 2 + 2
Turning to B3, the binding result in assay [4] was “binds”.

B4: VK-S95P (antibody, V domains shown)
VH: QVHLQQSGPELVRPGTSVKISCEASGYIFLTYWMNWVKQRPGQGLEWIGQIFPASDSTYYNEMFKDKARFTVDKSSSTAYMQFSSLTSEDTAVYFCARSGPYSYYAGGYALDYWGQGTSVTVSS
VL: DIQMTQSPASLSASVGETVTITCRTSENINSYLAWYQQKQGKSPQLLVHYAKTLAEGVPSRFSGSGSGTQFSLKINSLKPEDFGSYYCQHHYGTPLTFGAGTKLELKR
notes: germlining point mutant, paired with the parental chimeric heavy chain; also called GO11 chimeric IgG, light chain point mutant S95P; copies: 2 + 2
For the molecule B4, the binding result in assay [4] is “binds”.

B5: VK-A55Q (antibody, V domains shown)
VH: QVHLQQSGPELVRPGTSVKISCEASGYIFLTYWMNWVKQRPGQGLEWIGQIFPASDSTYYNEMFKDKARFTVDKSSSTAYMQFSSLTSEDTAVYFCARSGPYSYYAGGYALDYWGQGTSVTVSS
VL: DIQMTQSPASLSASVGETVTITCRTSENINSYLAWYQQKQGKSPQLLVHYAKTLQEGVPSRFSGSGSGTQFSLKINSLKPEDFGSYYCQHHYGTSLTFGAGTKLELKR
notes: germlining point mutant, paired with the parental chimeric heavy chain; also called GO11 chimeric IgG, light chain point mutant A55Q; copies: 2 + 2
Take B5: the binding result in assay [4] is listed as “binds”.

B6: VK-G93S (antibody, V domains shown)
VH: QVHLQQSGPELVRPGTSVKISCEASGYIFLTYWMNWVKQRPGQGLEWIGQIFPASDSTYYNEMFKDKARFTVDKSSSTAYMQFSSLTSEDTAVYFCARSGPYSYYAGGYALDYWGQGTSVTVSS
VL: DIQMTQSPASLSASVGETVTITCRTSENINSYLAWYQQKQGKSPQLLVHYAKTLAEGVPSRFSGSGSGTQFSLKINSLKPEDFGSYYCQHHYSTSLTFGAGTKLELKR
notes: germlining point mutant, paired with the parental chimeric heavy chain; also called GO11 chimeric IgG, light chain point mutant G93S; copies: 2 + 2
B6: the binding result in assay [4] is recorded as “binds”.

B7: VK-H90Q (antibody, V domains shown)
VH: QVHLQQSGPELVRPGTSVKISCEASGYIFLTYWMNWVKQRPGQGLEWIGQIFPASDSTYYNEMFKDKARFTVDKSSSTAYMQFSSLTSEDTAVYFCARSGPYSYYAGGYALDYWGQGTSVTVSS
VL: DIQMTQSPASLSASVGETVTITCRTSENINSYLAWYQQKQGKSPQLLVHYAKTLAEGVPSRFSGSGSGTQFSLKINSLKPEDFGSYYCQQHYGTSLTFGAGTKLELKR
notes: germlining point mutant, paired with the parental chimeric heavy chain; also called GO11 chimeric IgG, light chain point mutant H90Q; copies: 2 + 2
Consider B7, for which, in assay [4], the binding result is recorded as “binds”.

B8: VK-H91S (antibody, V domains shown)
VH: QVHLQQSGPELVRPGTSVKISCEASGYIFLTYWMNWVKQRPGQGLEWIGQIFPASDSTYYNEMFKDKARFTVDKSSSTAYMQFSSLTSEDTAVYFCARSGPYSYYAGGYALDYWGQGTSVTVSS
VL: DIQMTQSPASLSASVGETVTITCRTSENINSYLAWYQQKQGKSPQLLVHYAKTLAEGVPSRFSGSGSGTQFSLKINSLKPEDFGSYYCQHSYGTSLTFGAGTKLELKR
notes: germlining point mutant, paired with the parental chimeric heavy chain; also called GO11 chimeric IgG, light chain point mutant H91S; copies: 2 + 2
As to B8, the binding result in assay [4] is “binds”.

B9: engrafted Fab (GO11 CDRs on IGKV1-39*01 and IGHV1-69*02) (Fab, V domains shown)
VH: QVQLVQSGAEVKKPGSSVKVSCKASGYIFLTYWMNWVRQAPGQGLEWMGQIFPASDSTYYNEMFKDRVTITADKSTSTAYMELSSLRSEDTAVYYCARSGPYSYYAGGYALDYWGQGTLVTVSS
VL: DIQMTQSPSSLSASVGDRVTITCRTSENINSYLAWYQQKPGKAPKLLIYYAKTLAEGVPSRFSGSGSGTDFTLTISSLQPEDFATYYCQHHYGTSLTFGQGTKLEIK
notes: Fab from E. coli periplasmic extract; constant parts not specified; also called HUMANIZED/GRAFT 005-G011 #A1
Turning to B9, the binding result in assay [5] is given as “binds”.

(Values after US20240317868A1 (Boehringer Ingelheim, published 2024).)
